This passage reports stoichiometry N results from article PMC6415886.

For orientation: stoichiometry N means the number of molecules, sites or subunits per partner or assembly.

This assay concerns the target T1, INTP5 (biosimilar pegfilgrastim, N-terminally pegylated filgrastim produced by Intas) (human), P09919.
T1 chain: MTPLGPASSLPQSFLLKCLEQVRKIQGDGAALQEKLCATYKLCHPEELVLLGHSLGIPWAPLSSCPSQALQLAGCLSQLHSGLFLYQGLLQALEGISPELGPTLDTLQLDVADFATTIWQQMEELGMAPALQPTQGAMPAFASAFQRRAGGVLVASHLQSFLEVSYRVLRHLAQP
In words: SEC-MALS; vortexed (stress aggregated) INTP5; TSKgel G3000 SWXL, phosphate buffer with 100 mM NaCl and 10% ethanol, 25°C; 36 μg loaded. Particulars: remark: other sources report otherwise. In general terms: In gel filtration, larger molecules generally elute earlier.

B1: INTP5 (biosimilar pegfilgrastim, N-terminally pegylated filgrastim produced by Intas), P09919-2 31-204 (ligand)
chain: T1 chain
modifications: here or on the partner: 20 kDa monomethoxypolyethylene glycol (mPEG) on the N-terminal amino group of Met1, secondary amine linkage; 20 kDa monomethoxypolyethylene glycol (mPEG) on the N-terminal amino group of Met1, secondary amine linkage
Molecule B1 yielded a stoichiometry N of 2.
